In PMC8316566:

Biological target: T1, MRM3 (human (endogenous in HEK293)), Q9HC36
T1 chain: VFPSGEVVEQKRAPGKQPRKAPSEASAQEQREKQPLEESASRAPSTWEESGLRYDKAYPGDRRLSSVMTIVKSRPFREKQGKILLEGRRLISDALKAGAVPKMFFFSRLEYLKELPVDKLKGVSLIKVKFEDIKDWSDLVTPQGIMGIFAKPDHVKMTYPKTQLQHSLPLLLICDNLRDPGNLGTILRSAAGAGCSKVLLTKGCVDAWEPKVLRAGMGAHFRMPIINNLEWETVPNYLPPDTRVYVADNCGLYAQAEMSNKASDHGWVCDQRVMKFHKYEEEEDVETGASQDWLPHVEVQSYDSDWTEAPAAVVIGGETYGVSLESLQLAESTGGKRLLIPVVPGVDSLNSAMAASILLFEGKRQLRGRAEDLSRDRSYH
Test: cryo-EM structure; native 39S pre-mitoribosomal particles isolated by anti-Flag affinity purification (MALSU1 or GTPBP10 bait; state 1 also with particles from a uL17 bait) from HEK293 cells; single-particle analysis, average resolutions between 3.1 Å and 5.7 Å; factors fitted as rigid-body homology models or crystal structures
Conditions: remark: other sources report otherwise

B1: MRM3, Q9HC36 41-420 (natural protein)
chain: T1 chain
stoichiometry N: 2
